“Also recorded” adds a separate entry of the source.
How the values were obtained:
[1] = molecular target: T1, PKR (Homo sapiens, UniProt P19525); experiment: Protein blot of phospho-PKR (T446 and T451) in HEK293T cells transfected with repeat expansion constructs; format: cell-based; conditions: for G4C2 repeat-expansion induced p-PKR levels: HEK293T, G4C2 expansion construct, dose series
T1 construct: endogenous in cells; host or cells: HEK293T
Procedure: (§1) HEK293T cells were cultured in DMEM medium supplemented with 10% fetal bovine serum and incubated at 37° C. in a humid atmosphere containing 5% CO2. DNA transfections were performed using Lipofectamine 2000 Reagent (Invitrogen) according to the manufacturer's instructions.
(§2) Transfected cells in each well of a six-well tissue-culture plate were rinsed with PBS and lysed in 300 μL RIPA buffer with protease inhibitor cocktail for 45 min on ice. DNA was sheared by passage through a 21-gauge needle. The cell lysates were centrifuged at 16,000×g for 15 min at 4° C., and the supernatant was collected. The protein concentration of the cell lysate was determined using the protein assay dye reagent (Bio-Rad). Twenty micrograms of protein were separated in a 4-12% NuPAGE Bis-Tris gel (Invitrogen) and transferred to a nitrocellulose membrane (Amersham). The membrane was blocked in 5% dry milk in PBS containing 0.05% Tween-20 (PBS-T) and probed with the anti-Flag (1:2000), anti-Myc (1:1000), anti-HA (1:1000), or rabbit polyclonal antibodies (1:1000) in blocking solution. After the membrane was incubated with anti-rabbit or anti-mouse HRP-conjugated secondary antibody (Amersham), bands were visualized by the ECL plus Western Blotting Detection System (Amersham).
Therefore, the ability of other RAN positive repeat expansions to activate PKR and the role of PKR on RAN translation were tested.
[…]. Transient transfections of expansion constructs treated with or without metformin were performed. […].

[2] = tested on: RAN translation; experiment: Immunoblot of RAN protein levels in HEK293T cells transfected with repeat expansion constructs; format: cell-based; conditions: for RAN polyGP levels: HEK293T transiently transfected with G4C2 expansion construct, dose series; for polyLPAC RAN protein levels: CCTG (CCUG) expansion construct; for polyGP RAN protein levels: GGGGCC (G4C2) expansion construct
Description: Diagrams of CAG, CCTG and GGGCC repeat expansion constructs used to test effects of protein kinase R (PKR) on repeat associated non-ATG (RAN) translation are shown in FIG. 1A. Briefly, constructs have a 6× stop-codon cassette (e.g., two stops in each reading frame, upstream of the repeat expansions and C-terminal epitope tags). A diagram of PKR vectors expressing wildtype (PKR-WT), the dominant negative K296R mutant form of PKR (PKR-K296R), or the C-terminal only domain (PKR-CT) are shown in FIG. 1B.
(§3) HEK293T cells were transfected with RAN protein-expressing and PKR-expressing constructs.
as §1, §2
Next, the effects of PKR overexpression and inhibition on RAN protein accumulation across several types of repeat expansions were tested. […] For CAGEXP expressing cells, PKR-WT overexpression led to increased p-PKR and p-eIF2α, and increased RAN polyAla protein levels. In contrast, expression of the dominant-negative PKR-K296R mutation decreased polyAla RAN protein levels. […] The polyGln reading frame, which contains an AUG initiation codon, is not affected by PKR (FIG. 7A).
. […] Protein blots were run on protein lysates from HEK293T cells transfected with various repeat expansion constructs shown in FIG. 13A. In FIG. 13B, the lanes labeled KMQ, show: RAN poly-Ser-Flag, RAN poly-Ala-HA, ATG initiated polyGln-Myc. In FIG. 13B the lanes labeled KMQ has a methionine encoding ATG immediately 5′ to the CAG repeat expansion and located within the polyGln reading frame. The lanes labeled KKQ indicate the KKQ vector contains a CAG expansion without an AUG initiation codon, and indicates: RAN polySer-Flag, RAN polyAla-HA, RAN polyGln-Myc. These constructs contain epitope tags that are incorporated into the C-terminal regions of the ATG-initiated poly-Gln and non-ATG initiated RAN proteins (poly-Gln, poly-Leu-Pro-Ala-Cys and poly-Gly-Pro) which are expressed across these repeat expansions. The lane labeled CCTG expresses the following RAN proteins: RAN polyLPAC-Flag, RAN polyLPAC-HA, RAN polyLPAC-Myc. The lane labeled G4C2 is designed to detect the following RAN proteins: RAN polyGP-Flag, RAN polyGR-HA, RAN polyGA-Myc. […]

[3] = tested on: glycine-proline (GP) RAN protein; experiment: GP RAN protein levels in peripheral blood leukocytes of a C9ORF72 expansion-positive human subject; format: in vivo; conditions: single human subject; 500 or 1000 mg/day Metformin Hydrochloride Extended Release Tablets; 10 to 30 days; vs pretreatment
Description: […]. […] […].

[4] = tested on: eIF2α; experiment: Immunoblot of phosphorylated eIF2α in transfected HEK293T cells; format: cell-based; conditions: HEK293T co-transfected with repeat expansion constructs
Procedure: as §3, §1
as §2, with “System (Amersham). […]” for “System (Amersham).”

[5] = tested on: C9-500 BAC mice; experiment: ICV injection of AAV expressing PKR-K296R in C9-500 BAC transgenic mice; format: in vivo; conditions: for GA RAN protein aggregates in the retrosplenial cortex (IHC): analysis at 3 months; for open field center time: vs C9 EGFP control animals
Description: Schematic diagrams of AAV2/9 constructs used for rAAV injections into a BAC transgenic mouse model of C9orf72 ALS/FTD containing 500 G4C2 repeats (C9-500 BAC) are shown in FIG. 3A. Briefly, animals were sacrificed for analysis at 3 months of age after […] intracerebral ventricular (ICV) injections with AAV2/9 virus expressing either EGFP or the dominant negative form of PKR(K296R).
Representative immunohistochemical (IHC) staining of GA RAN protein aggregates in sections of the retrosplenial cortex from C9-500 BAC mice (FIG. 3B, left). Quantification of GA RAN protein aggregates was also performed (FIG. 3B, right). Analysis was done in a blinded fashion.
AAV vectors expressing the PKR under the control of the cytomegalovirus enhance/chicken beta actin (CBA) promoter, a woodchuck hepatitis virus post-transcriptional-regulatory element (WPRE), and the bovine growth hormone polyA were generated by Polyethylenimine Linear (PEI, Polysciences) transfection into HEK293T cells. Cells were co-transfected with AAV helper plasmids pDP8.ape to produce recombinant adeno-associated viral (rAAV) vector rAAV2/8.
Neonatal pups were injected within 0-12 hours after birth. The naive pups were covered in aluminum foil and completely surrounded in ice for 3-4 minutes, resulting in the body temperature being lowered to <10° C. The pups were considered completely cryoanesthetized when all movement stops and the skin color changes from pink to purple. 2 μl of virus ([…]) was slowly injected into the ventricle using 10 μl syringes (30 degree beveled). After injection pups were allowed to completely recover on a warming blanket and then returned to the home cage.
rAAV-mediated delivery of dominant negative PKR-K296R, or EGFP as a control, was performed using intracerebroventricular (ICV) injections at P0 in C9orf72 ALS/FTD BAC transgenic mice (C9-BAC) and non-transgenic (NT) littermate controls. A schematic depiction of each construct is described in FIG. 10A. Four groups of animals (EGFP/C9, EGFP/NT, PKR-K296R/C9 and PKR-K296R/NT) were aged to 3 months. […] Similarly, soluble GP levels, detected by meso-scale detection (MSD) assays, were reduced in brain lysates from C9 PKR-K296R treated animals compared to C9 EGFP controls.

[6] = HEK293T, CAG expansion construct

T1 sequence (P19525 whole entry): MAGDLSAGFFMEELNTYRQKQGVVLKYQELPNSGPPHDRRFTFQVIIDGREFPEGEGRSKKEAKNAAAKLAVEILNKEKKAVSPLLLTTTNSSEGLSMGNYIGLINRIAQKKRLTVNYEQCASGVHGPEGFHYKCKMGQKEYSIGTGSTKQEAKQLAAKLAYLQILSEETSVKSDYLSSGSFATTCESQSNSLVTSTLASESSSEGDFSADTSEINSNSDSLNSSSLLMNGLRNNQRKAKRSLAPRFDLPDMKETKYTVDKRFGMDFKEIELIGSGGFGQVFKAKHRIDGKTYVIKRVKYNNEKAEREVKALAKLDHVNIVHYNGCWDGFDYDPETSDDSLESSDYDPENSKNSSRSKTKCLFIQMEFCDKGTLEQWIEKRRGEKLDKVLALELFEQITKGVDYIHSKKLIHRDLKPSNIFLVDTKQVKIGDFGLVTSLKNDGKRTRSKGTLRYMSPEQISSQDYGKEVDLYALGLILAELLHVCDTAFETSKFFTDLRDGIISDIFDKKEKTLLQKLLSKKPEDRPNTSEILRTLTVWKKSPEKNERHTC

Molecule: CCCCNC(=N)NC(=N)N [buformin, reference compound]
- G4C2 repeat-expansion induced p-PKR levels [1]: dose-dependent inhibition
- RAN polyGP levels [2]: dose-dependent inhibition

Molecule: CN(C)C(=N)NC(=N)N [metformin, reference compound]
- PKR phosphorylation at T446 and T451 ([1]; HEK293T transiently transfected with expansion constructs, with or without metformin): decreases
- G4C2 repeat-expansion induced p-PKR levels [1]: dose-dependent inhibition
- RAN protein levels ([2]; HEK293T cells expressing CAG, CCUG or G4C2 expansion RNAs, protein blot): decreases
- RAN polyGP levels [2]: dose-dependent inhibition
- polyAla RAN protein levels [2, 6]: reduced RAN protein levels
- polyLPAC RAN protein levels ([2]; HEK293T): reduced RAN protein levels
- polyGP RAN protein levels ([2]; HEK293T): reduced RAN protein levels
- glycine-proline (GP) RAN protein levels in leukocyte lysates from peripheral blood [3]: Dose dependent reduction

Molecule: O=C(COc1ccc(Cl)cc1)NC1CCC(NC(=O)COc2ccc(Cl)cc2)CC1 (stereo not drawn) [ISRIB, reference compound]
- polyAla RAN protein levels ([2]; HEK293T transfected with expanded CAG and PKR-WT constructs): reduces
- polyAla RAN protein levels ([2]; HEK293T transfected with expanded CAG and PKR-WT constructs, listed as ISIRB): decrease

Molecule: [H]/N=C(/N)N/C(=N/[H])NCCc1ccccc1 [phenformin, reference compound]
- G4C2 repeat-expansion induced p-PKR levels [1]: dose-dependent inhibition
- RAN polyGP levels [2]: dose-dependent inhibition

B1: TARBP2: PKR inhibitor, transactivation response element RNA-binding protein, overexpressed by co-transfection (protein, UniProt Q15633 1-366, looked up)
RISC-loading complex subunit …: MSEEEQGSGTTTGCGLPSIEQMLAANPGKTPISLLQEYGTRIGKTPVYDLLKAEGQAHQPNFTFRVTVGDTSCTGQGPSKKAAKHKAAEVALKHLKGGSMLEPALEDSSSFSPLDSSLPEDIPVFTAAAAATPVPSVVLTRSPPMELQPPVSPQQSECNPVGALQELVVQKGWRLPEYTVTQESGPAHRKEFTMTCRVERFIEIGSGTSKKLAKRNAAAKMLLRVHTVPLDARDGNEVEPDDDHFSIGVGSRLDGLRNRGPGCTWDSLRNSVGEKILSLRSCSLGSLGALGPACCRVLSELSEEQAFHVSYLDIEELSLSGLCQCLVELSTQPATVCHGSATTREAARGEAARRALQYLKIMAGSK
- RAN polyAla levels expressed from CAG and CUG (CTG) expansions ([2]; HEK293T co-transfection, overexpression): decreases
- polyLPAC RAN protein levels ([2]; HEK293T): decreases
- steady state levels of eIF2α-P (p-eIF2α) [4]: reduces; also recorded: decrease

B2: PKR-K296R: dominant negative K296R mutant form of protein kinase R, expressed from plasmid or AAV vector (protein, UniProt P19525 2-551, looked up, variant K296R)
Interferon-induced, …: AGDLSAGFFMEELNTYRQKQGVVLKYQELPNSGPPHDRRFTFQVIIDGREFPEGEGRSKKEAKNAAAKLAVEILNKEKKAVSPLLLTTTNSSEGLSMGNYIGLINRIAQKKRLTVNYEQCASGVHGPEGFHYKCKMGQKEYSIGTGSTKQEAKQLAAKLAYLQILSEETSVKSDYLSSGSFATTCESQSNSLVTSTLASESSSEGDFSADTSEINSNSDSLNSSSLLMNGLRNNQRKAKRSLAPRFDLPDMKETKYTVDKRFGMDFKEIELIGSGGFGQVFKAKHRIDGKTYVIRRVKYNNEKAEREVKALAKLDHVNIVHYNGCWDGFDYDPETSDDSLESSDYDPENSKNSSRSKTKCLFIQMEFCDKGTLEQWIEKRRGEKLDKVLALELFEQITKGVDYIHSKKLIHRDLKPSNIFLVDTKQVKIGDFGLVTSLKNDGKRTRSKGTLRYMSPEQISSQDYGKEVDLYALGLILAELLHVCDTAFETSKFFTDLRDGIISDIFDKKEKTLLQKLLSKKPEDRPNTSEILRTLTVWKKSPEKNERHTC
- polyAla RAN protein levels [2, 6]: decreased
- polyAla RAN protein levels ([2]; HEK293T, CAG expansion construct, listed as K296R PKR): decreases
- ATG-initiated polyGln protein levels ([2]; HEK293T, CAG expansion with ATG in polyGln frame): not affected
- polyQAGR RAN protein levels ([2]; HEK293T, CAGG expansion construct): decreased
- polyLPAC RAN protein levels ([2]; HEK293T): decreased
- polyLPAC RAN protein levels ([2]; HEK293T, listed as K296R PKR): decreases
- polyGP RAN protein levels ([2]; HEK293T): decreased
- polyGP RAN protein levels ([2]; HEK293T, listed as K296R PKR): decreases
- DigiGait parameters (of 15) significantly different between C9 PKR-K296R and NT treatment groups ([5]; 12 weeks): 2
- DigiGait parameters improved, of 15 that differed between untreated C9-500 and NT EGFP controls ([5]; 12 weeks): nine of these parameters improved
- soluble GP levels in brain lysates (MSD) ([5]; neonatal ICV AAV injection, 3 months, vs C9 EGFP controls): reduced
- GA RAN protein aggregates in the retrosplenial cortex (IHC) ([5]; neonatal ICV AAV injection, vs C9 EGFP controls): decreased numbers of GA aggregates
- GA RAN protein aggregates in the retrosplenial cortex (IHC) ([5]; neonatal ICV AAV injection, vs C9 EGFP controls, listed as PKR(K296R)): fewer GA RAN protein aggregates
- open field center time [5]: increased center time
- open field center time ([5]; listed as PKR(K296R)): reduced center time
- steady state levels of eIF2α-P (p-eIF2α) [4]: decreases
